# Laboratory results reported in patent US20050100554A1 (published 2005).
# T1: tissue factor pathway inhibitor (lipoprotein-associated coagulation inhibitor) (human, UniProt P10646 29-304)
# T1 construct: also called TFPI; cbe_3834015
# T1 sequence: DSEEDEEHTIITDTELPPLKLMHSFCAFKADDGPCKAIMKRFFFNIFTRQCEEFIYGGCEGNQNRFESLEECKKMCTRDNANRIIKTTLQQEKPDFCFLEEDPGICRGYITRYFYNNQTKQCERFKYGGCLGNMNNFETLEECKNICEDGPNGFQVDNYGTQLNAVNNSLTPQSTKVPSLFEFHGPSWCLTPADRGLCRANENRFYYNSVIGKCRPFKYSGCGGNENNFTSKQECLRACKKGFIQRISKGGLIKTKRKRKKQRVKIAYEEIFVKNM
# T2: Homo sapiens QUAKING isoform 5 (QUAKING) (human, UniProt Q96PU8 5-341)
# T2 construct: also called cbe_3810032
# T2 sequence: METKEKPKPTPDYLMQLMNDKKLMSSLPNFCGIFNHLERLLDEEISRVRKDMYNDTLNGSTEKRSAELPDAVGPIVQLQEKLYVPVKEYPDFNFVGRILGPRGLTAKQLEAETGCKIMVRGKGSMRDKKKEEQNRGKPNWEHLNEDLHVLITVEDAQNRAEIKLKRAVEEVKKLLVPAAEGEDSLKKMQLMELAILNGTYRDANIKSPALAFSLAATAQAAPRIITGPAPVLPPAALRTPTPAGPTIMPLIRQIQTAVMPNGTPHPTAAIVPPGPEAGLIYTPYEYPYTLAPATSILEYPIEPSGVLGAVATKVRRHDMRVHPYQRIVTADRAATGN
# T3: phosphoglycerate mutase 1 (brain) (human, UniProt P18669 2-254)
# T3 construct: also called PGAM1; cbe_3820530
# T3 sequence: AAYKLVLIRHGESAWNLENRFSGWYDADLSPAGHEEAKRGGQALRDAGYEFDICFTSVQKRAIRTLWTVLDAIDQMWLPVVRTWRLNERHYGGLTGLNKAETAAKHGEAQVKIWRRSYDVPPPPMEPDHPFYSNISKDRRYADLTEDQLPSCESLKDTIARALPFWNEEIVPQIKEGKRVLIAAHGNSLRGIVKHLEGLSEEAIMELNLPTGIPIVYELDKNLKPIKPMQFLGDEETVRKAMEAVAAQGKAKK
# T4: hexokinase 1 (human, UniProt P19367 22-917)
# T4 construct: also called HK1; cbe_3665307
# T4 sequence: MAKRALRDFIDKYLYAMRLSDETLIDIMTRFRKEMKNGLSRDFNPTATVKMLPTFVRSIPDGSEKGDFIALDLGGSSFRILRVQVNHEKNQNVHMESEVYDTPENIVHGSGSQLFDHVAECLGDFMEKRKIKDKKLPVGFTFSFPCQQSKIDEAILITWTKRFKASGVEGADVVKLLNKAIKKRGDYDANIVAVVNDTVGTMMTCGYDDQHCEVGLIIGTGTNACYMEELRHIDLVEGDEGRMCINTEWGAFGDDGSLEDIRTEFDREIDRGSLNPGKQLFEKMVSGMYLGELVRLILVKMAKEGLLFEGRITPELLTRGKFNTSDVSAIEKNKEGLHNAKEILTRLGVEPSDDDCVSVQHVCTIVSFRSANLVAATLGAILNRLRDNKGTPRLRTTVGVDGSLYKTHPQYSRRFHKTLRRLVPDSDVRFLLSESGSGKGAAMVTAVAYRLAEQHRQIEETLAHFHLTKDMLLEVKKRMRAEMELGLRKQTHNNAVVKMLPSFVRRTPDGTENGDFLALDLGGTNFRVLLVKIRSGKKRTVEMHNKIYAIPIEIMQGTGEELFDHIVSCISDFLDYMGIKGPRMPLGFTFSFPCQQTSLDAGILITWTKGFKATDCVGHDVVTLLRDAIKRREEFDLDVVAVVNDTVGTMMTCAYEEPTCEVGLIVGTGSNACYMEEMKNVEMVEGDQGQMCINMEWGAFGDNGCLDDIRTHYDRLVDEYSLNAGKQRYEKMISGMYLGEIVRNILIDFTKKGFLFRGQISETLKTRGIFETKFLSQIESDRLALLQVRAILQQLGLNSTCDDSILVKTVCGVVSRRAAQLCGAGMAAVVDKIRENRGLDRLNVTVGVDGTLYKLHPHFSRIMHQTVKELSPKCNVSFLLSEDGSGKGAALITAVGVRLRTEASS
# B1: TRAF interacting protein (other)
# chain: MPIRALCTICSDFFDHSRDVAAIHCGHTFHLQCLIQSFETAPSRTCPQCRIQVGKRTIINKLFFDLAQEEENVLDREFLKNELDNVRAQLSQKDKEKRDSQVIIDTLRDTLEERNATVVSLQQALGKAEMLCSTLKKQMKYLEQQQDETKQAQEEAGRLRSKMKTMEQIELLLQSQLPEVEEMIRDMGVGQSAVEQLAVYCVSLKKEYENLKEARKASGEVADKLRKDLFSSRSKLQTVYSELDQAKLELKSAQKDLQSADKEIMSLKKKLTMLQETLNLPPVASETVDRLVLESPAPVEVNLKLRRPSFRDDIDLNATFDVDTPPARPSSSQHGYYEKLCLEKSHSPIQDVPKKICKGPRKESQLSLGGQSCAGEPDEELVGAFPIFVRNAILGQKQPKRPRSESSCSKDVVRTGFDGLGGRTKFIQPTDTVMIRPLPVKPKTKVKQRVRVKTVPSLFQAKLDTFLWS
# notes: also called TRIP; cbe_3340492
# B2: Human Papillomavirus 1a E7 (other)
# chain: MVGEMPALKDLVLQLEPSVLDLDLYCYEEVPPDDIEEELVSPQQPYAVVASCAYCEKLVRLTVLADHSAIRQLEELLLRSLNIVCPLCTLQRQ
# notes: also called HPV 1a E7; cbe_251925
# B3: Human Papillomavirus 1a E6 (other)
# chain: MATPIRTVRQLSESLCIPYIDVLLPCNFCNYFLSNAEKLLFDHFDLHLVWRDNLVFGCCQGCARTVSLLEFVLYYQESYEVPEIEEILDRPLLQIELRCVTCIKKLSVAEKLEVVSNGERVHRVRNRLKAKCSLCRLYAI
# notes: also called HPV 1a E6; cbe_251919
# B4: Human Papillomavirus 1a E1 (other)
# chain: MADNKGTENDWFLVEATDCEETLEETSLGDLDNVSCVSDLSDLLDEAPQSQGNSLELFHKQESLESEQELNALKRKLLYSPQARSADETDIASISPRLETISITKQDKKRYRRQLFSQDDSGLELSLLQDETENIDESTQVDQQQKEHTGEVGAAGVNILKASNIRAALLSRFKDTAGVSFTDLTRSYKSNKTCCGDWVLAVWGVRENLIDSVKELLQTHCVYIQLEHAVTEKNRFLFLLVRFKAQKSRETVIKLITTILPVDASYILSEPPKSRSVAAALFWYKRSMSSTVFTWGTTLEWIAQQTLINHQLDSESPFELCKMVQWAYDNGHTEECKIAYYYAVLADEDENARAFLSSNSQAKYVKDCAQMVRHYLRAEMAQMSMSEWIFRKLDNVEGSGNWKEIVRFLRFQEVEFISFMIAFKDLLCGKPKKNCLLIFGPPNTGKSMFCTSLLKLLGGKVISYCNSKSQFWLQPLADAKIGLLDDATKPCWDYMDIYMRNALDGNTICIDLKHRAPQQIKCPPLLITSNIDVKSDTCWMYLHSRISAFKFAHEFPFKDNGDPGFSLTDENWKSFFERFWQQLELSDQEDEGNDGKPQQSLRLTARAANEPI
# notes: also called HPV 1a E1; cbe_552975
# B5: interferon regulatory factor 1 (other)
# chain: MPITRMRMRPWLEMQINSNQIPGLIWINKEEMIFQIPWKHAAKHGWDINKDACLFRSWAIHTGRYKAGEKEPDPKTWKANFRCAMNSLPDIEEVKDQSRNKGSSAVRVYRMLPPLTKNQRKERKSKSSRDAKSKAKRKSCGDSSPDTFSDGLSSSTLPDDHSSYTVPGYMQDLEVEQALTPALSPCAVSSTLPDWHIPVEVVPDSTSDLYNFQVSPMPSTSEATTDEDEEGKLPEDIMKLLEQSEWQPTNVDGKGYLLNEPGVQPTSVYGDFSCKEEPEIDSPGGDIGLSLQRVFTDLKNMDATWLDSLLTPVRLPSIQAIPCAP
# notes: also called IRF1; cbe_3001381
# B6: hypothetical protein FLJ13236 (other)
# chain: MAKGLLVTYALWAVGGPAGLHHLYLGRDSHALLWMLTLGGGGLGWLWEFWKLPSFVAQANRAQGQRQSPRGVTPPLSPIRFAAQVIVGIYFGLVALISLSSMVNFYIVALPLAVGLGVLLVAAVGNQTSDFKNTLGSAFLTSPIFYGRPIAILPISVAASITAQRHRRYKALVASEPLSVRLYRLGLAYLAFTGPLAYSALCNTAATLSYVAETFGSFLNWFSFFPLLGRLMEFVLLLPYRIWRLLMGETGFNSSCFQEWAKLYEFVHSFQDEKRQLAYQVLGLSEGATNEEIHRSYQELVKVWHPDHNLDQTEEAQRHFLEIQAAYEVLSQPRKPWGSRR
# notes: also called cbe_71919
# B7: TDE1 (other)
# chain: MGAVLGVFSLASWVPCLCSGASCLLCSCCPNSKNSTVTRLIYAFILLLSTVVSYIMQRKEMETYLKKIPGFCEGGFKIHEADINADKDCDVLVGYKAVYRISFAMAIFFFVFSLLMFKVKTSKDLRAAVHNGFWFFKIAALIGIMVGSFYIPGGYFSSVWFVVGMIGAALFILIQLVLLVDFAHSWNESWVNRMEEGNPRLWYAALLSFTSAFYILSIICVGLLYTYYTKPDGCTENKFFISINLILCVVASIISIHPKIQEHQPRSGLLQSSLITLYTMYLTWSAMSNEPDRSCNPNLMSFITRITAPTLAPGNSTAVVPTPTPPSKSGSLLDSDNFIGLFVFVLCLLYSSIRTSTNSQVDKLTLSGSDSVILGDTTTSGASDEEDGQPRRAVDNEKEGVQYSYSLFHLMLCLASLYIMMTLTSWYSPDAKFQSMTSKWPAVWVKISSSWVCLLLYVWTLVAPLVLTSRDFS
# notes: also called cbe_3926508
# Key:
# [1] = molecular target: B4; test: Y2H; INT ID 582
# [2] = molecular target: T5, adaptor-related protein complex 2, mu 1 subunit (human, UniProt Q96CW1 1-435); test: Y2H; INT ID 430
# T5 construct: also called AP2M1; cbe_3789063
# RBP4 = molecular target: T6, RBP4 (human, UniProt P02753 19-201); test: Y2H; INT ID 433
# T6 construct: also called cbe_4265947
# [3] = molecular target: T1, tissue factor pathway inhibitor …; test: Y2H; INT ID 309
# [4] = molecular target: T2, Homo sapiens QUAKING isoform 5 (QUAKING); test: Y2H; INT ID 431
# [5] = molecular target: T3, phosphoglycerate mutase 1 (brain); test: Y2H; INT ID 432
# [6] = molecular target: T7, exportin 1 (CRM1 homolog, yeast) (human, UniProt O14980 1-1071); test: Y2H; INT ID 424
# T7 construct: also called XPO1; cbe_3621798
# hexokinase 1 = molecular target: T4, hexokinase 1; test: Y2H; INT ID 425
# ANXA2 = molecular target: T8, ANXA2 (human, UniProt P07355 2-339); test: Y2H; INT ID 426
# T8 construct: also called cbe_4267867
# NDUFAB1 = molecular target: T9, NDUFAB1 (human, UniProt O14561 69-156); test: Y2H; INT ID 587
# T9 construct: also called cbe_4269931
# TLK2 = molecular target: T10, TLK2 (human, UniProt Q86UE8 1-772, limits assumed); test: Y2H; INT ID 584
# T10 construct: Y2H Gal4 fusion; also called cbe_4269167
# [7] = molecular target: B4; test: Y2H; INT ID 581
# [8] = molecular target: B4; test: Y2H; INT ID 579
# [9] = molecular target: B4; test: Y2H; INT ID 583
# T10 sequence (Q86UE8 whole entry, the tested form may be a part): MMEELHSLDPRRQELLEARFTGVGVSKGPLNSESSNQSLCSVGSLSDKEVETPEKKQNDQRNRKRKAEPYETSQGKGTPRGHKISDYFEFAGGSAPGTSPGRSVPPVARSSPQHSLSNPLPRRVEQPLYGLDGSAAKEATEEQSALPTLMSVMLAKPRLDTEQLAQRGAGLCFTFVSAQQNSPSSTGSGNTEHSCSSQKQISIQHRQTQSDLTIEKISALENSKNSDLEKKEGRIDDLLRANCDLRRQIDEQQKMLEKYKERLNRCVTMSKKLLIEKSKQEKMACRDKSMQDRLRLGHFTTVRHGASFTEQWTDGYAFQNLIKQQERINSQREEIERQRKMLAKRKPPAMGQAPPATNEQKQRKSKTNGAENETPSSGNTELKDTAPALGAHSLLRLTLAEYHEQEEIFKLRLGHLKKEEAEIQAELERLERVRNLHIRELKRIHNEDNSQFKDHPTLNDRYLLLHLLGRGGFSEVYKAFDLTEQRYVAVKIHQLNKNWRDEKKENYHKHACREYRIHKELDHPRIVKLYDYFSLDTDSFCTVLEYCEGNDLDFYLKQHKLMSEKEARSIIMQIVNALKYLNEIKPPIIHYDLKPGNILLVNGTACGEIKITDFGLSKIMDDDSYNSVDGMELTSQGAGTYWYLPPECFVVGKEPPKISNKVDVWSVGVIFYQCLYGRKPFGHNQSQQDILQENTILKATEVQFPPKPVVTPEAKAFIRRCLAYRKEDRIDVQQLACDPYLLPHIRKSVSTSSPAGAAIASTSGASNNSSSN
# T7 sequence (O14980 whole entry): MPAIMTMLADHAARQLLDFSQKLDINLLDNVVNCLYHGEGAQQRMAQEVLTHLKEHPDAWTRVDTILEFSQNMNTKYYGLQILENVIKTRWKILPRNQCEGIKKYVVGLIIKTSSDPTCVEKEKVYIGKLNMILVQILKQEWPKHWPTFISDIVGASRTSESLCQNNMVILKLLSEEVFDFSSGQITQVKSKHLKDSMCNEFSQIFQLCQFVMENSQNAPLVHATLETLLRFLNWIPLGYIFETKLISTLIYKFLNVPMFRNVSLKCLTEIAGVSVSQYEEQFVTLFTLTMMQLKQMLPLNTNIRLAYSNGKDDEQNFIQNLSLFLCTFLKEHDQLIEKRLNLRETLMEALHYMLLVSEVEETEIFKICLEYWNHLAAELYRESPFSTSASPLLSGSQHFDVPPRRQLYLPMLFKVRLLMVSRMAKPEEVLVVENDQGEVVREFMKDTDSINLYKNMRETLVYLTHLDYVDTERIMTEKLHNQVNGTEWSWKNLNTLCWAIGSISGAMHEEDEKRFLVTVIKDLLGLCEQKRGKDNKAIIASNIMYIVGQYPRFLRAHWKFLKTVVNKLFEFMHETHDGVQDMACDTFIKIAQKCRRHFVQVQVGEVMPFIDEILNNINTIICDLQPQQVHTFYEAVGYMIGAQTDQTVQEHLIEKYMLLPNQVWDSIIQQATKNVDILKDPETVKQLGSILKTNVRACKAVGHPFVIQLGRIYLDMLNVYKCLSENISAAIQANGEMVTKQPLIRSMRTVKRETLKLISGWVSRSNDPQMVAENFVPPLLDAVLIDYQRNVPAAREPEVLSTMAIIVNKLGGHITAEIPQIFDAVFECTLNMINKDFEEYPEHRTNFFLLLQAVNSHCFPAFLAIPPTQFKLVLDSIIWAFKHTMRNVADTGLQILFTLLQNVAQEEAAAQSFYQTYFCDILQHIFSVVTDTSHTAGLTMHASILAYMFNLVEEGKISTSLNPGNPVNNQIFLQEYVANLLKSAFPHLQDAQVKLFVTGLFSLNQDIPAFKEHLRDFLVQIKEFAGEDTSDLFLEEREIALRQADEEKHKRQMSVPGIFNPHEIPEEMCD
# T5 sequence (Q96CW1 whole entry, one chain of several): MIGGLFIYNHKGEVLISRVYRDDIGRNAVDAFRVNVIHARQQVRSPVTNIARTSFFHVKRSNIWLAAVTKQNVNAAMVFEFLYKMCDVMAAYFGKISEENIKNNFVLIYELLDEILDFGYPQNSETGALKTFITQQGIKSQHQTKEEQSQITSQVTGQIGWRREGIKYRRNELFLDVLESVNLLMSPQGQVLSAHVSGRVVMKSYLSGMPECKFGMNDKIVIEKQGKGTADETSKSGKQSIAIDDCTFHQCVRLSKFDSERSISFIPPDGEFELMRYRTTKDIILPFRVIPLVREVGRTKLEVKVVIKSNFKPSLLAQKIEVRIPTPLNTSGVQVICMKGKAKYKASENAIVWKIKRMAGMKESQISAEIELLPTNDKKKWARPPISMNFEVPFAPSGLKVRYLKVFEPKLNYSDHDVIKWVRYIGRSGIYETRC
# T8 sequence (P07355 2-339 limits assumed): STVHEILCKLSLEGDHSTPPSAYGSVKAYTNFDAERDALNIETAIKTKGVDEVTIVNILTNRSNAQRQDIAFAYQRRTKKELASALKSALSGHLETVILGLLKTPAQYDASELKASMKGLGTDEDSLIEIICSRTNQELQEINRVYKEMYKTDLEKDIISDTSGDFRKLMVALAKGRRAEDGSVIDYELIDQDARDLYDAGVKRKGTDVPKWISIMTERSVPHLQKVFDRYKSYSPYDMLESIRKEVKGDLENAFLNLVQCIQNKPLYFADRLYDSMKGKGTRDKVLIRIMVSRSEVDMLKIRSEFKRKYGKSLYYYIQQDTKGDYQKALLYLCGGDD
binder,measurement,setting,value
B1,binding result,[1],binds
B2,binding result,[2],binds
same,binding result,RBP4,binds
same,binding result,[3],binds
same,binding result,[4],binds
same,binding result,[5],binds
B3,binding result,[6],binds
same,binding result,hexokinase 1,binds
same,binding result,ANXA2,binds
B4,binding result,NDUFAB1,binds
same,binding result,TLK2,binds
B5,binding result,[7],binds
B6,binding result,[8],binds
B7,binding result,[9],binds
